Values belong to the molecule of their own block, whether it stands above or below them.
Tests used:
[1] = target: Cse4-NCP (Cse4 containing nucleosome core particle) (budding yeast) (UniProt P36012); experiment: cross-linking
Spc24/25 complex = Spc24/25 complex (budding yeast, UniProt Q04477;P40014); experiment: cross-linking
Ame1/Okp1 complex = Ame1/Okp1 complex (budding yeast, UniProt P38313;P53298); experiment: pull-down
[2] = target: Mif2* (Mif2-6xHis-6xFlag wild type, dephosphorylated and in vitro phosphorylated by Cdc5) (budding yeast, UniProt P35201 1-549); experiment: pull-down
Dsn1/Nsl1 = target: T1, Dsn1/Nsl1 (budding yeast, UniProt P40568;Q12143); experiment: SEC
T1 sequence 1: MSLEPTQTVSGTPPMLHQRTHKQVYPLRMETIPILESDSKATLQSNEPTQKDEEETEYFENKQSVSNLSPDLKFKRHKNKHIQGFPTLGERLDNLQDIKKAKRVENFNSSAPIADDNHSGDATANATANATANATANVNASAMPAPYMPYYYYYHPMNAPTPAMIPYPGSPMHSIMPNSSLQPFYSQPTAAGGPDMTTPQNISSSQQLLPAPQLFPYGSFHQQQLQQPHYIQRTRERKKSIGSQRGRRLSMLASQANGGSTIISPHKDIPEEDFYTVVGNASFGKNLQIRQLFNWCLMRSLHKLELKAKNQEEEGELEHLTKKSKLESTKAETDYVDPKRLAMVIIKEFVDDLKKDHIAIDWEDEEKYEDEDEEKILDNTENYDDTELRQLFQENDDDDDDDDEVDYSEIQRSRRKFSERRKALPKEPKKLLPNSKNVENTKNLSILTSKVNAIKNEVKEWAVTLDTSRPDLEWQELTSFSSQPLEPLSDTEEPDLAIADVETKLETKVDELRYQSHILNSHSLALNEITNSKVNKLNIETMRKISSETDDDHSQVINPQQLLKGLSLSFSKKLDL
T1 sequence 2: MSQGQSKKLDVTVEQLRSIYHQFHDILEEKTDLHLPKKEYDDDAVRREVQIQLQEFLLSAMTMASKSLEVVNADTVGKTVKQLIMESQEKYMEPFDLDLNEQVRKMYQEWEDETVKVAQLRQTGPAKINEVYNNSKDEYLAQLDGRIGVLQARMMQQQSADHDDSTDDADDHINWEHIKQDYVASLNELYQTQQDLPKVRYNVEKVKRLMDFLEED

Ame1/Okp1 complex, sequence (P38313 whole entry, chain 1 of 2): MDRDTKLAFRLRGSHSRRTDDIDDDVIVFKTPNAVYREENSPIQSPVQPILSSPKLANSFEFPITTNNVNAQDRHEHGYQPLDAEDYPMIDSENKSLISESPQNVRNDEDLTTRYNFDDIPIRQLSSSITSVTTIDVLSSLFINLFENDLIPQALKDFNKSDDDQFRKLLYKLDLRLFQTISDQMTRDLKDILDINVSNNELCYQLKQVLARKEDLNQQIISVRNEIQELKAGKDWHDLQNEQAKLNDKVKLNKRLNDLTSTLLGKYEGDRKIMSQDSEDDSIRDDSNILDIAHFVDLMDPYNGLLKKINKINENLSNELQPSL
Ame1/Okp1 complex, sequence (P53298 whole entry, chain 2 of 2): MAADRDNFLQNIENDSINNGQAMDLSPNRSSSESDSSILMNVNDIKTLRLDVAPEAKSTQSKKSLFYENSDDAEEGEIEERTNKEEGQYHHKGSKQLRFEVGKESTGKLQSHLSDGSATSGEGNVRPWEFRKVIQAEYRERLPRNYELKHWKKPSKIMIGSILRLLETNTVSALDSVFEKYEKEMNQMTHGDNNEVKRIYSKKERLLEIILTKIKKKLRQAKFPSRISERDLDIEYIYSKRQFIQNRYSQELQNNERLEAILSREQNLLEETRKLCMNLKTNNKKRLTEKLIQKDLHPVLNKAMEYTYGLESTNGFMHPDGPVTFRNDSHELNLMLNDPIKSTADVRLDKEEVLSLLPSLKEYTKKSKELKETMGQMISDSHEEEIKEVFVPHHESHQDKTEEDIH
Spc24/25 complex, sequence (Q04477 whole entry, chain 1 of 2): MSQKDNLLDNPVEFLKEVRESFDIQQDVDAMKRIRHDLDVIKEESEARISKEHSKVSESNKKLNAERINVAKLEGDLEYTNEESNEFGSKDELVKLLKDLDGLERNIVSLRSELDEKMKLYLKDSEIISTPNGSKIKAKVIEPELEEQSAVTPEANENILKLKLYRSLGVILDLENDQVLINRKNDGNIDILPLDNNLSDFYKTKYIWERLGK
Spc24/25 complex, sequence (P40014 whole entry, chain 2 of 2): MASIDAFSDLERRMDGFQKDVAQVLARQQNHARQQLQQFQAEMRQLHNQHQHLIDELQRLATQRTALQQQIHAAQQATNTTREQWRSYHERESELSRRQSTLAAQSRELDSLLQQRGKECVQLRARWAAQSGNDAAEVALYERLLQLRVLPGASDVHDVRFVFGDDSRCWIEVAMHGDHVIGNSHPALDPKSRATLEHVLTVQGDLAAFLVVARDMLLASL

Molecule: Mif2* (Mif2-6xHis-6xFlag wild type, dephosphorylated and in vitro phosphorylated by Cdc5) (from UniProt P35201 1-549) (natural protein)
fold decrease of KD with MTW1c(Dsn1^S240D,S250D) against wild-type MTW1c [1]: 20 fold

Molecule: NKDPNEVRSFLQDLSQVLARKSQGN [Cnn1^60-84 peptide]
Kd (Spc24/25 complex): 2600 nM

More lines, now with the values ahead:

binding result (Ame1/Okp1 complex): binds | binding result [2]: binds | binding result (Dsn1/Nsl1): binds
B1: Mtw1/Nnf1 (complex)
chain 1: MSAPTMRSTSILTEHLGYPPISLVDDIINAVNEIMYKCTAAMEKYLLSKSKIGEEDYGEEIKSGVAKLESLLENSVDKNFDKLELYVLRNVLRIPEEYLDANVFRLENQKDLVIVDENELKKSEEKLREKVNDVELAFKKNEMLLKRVTKVKRLLFTIRGFKQKLNELLKCKDDVQLQKILESLKPIDDTMTLLTDSLRKLYVDSESTSSTEEVEALLQRLKTNGKQNNKDFRTRYIDIRTNNVLRKLGLLGDKEDEKQSAKPDARTQAGDIVSIDIEEPQLDLLDDVL
chain 2: MVNSHGIRYIRLKQVFNRALDQSISKLQSWDKVSSCFPQYVNSKQGAINVANCQRQLTEFWTELCQREFKEIMEERNVEQKLNELDELILEAKERYTDRDQDEVNKGPAIDELSSKELVECHLYSQRMHAIHEIDERLAKVNEMNDQLAQELKDLETQVEVEKNEIGKMYDEYLGSHTDQPANVLLVQSLNDMVLELKENY

binding result (Ame1/Okp1 complex): binds
B2: Mif2^Δ200-230 mutant, in vitro phosphorylated by Cdc5 (natural protein)
chain: MDYMKLGLKSRKTGIDVKQDIPKDEYSMENIDDFFKDDETSLISMRRKSRRKSSLFLPSTLNGDTKNVLPPFLQSYKSQDDEVVQSPSGKGDGSRRSSLLSHQSNFLSPANDFEPIEEEPEQEENDIRGNDFATPITQKLSKPTYKRKYSTRYSLDTSESPSVRLTPDRITNKNVYSDVPDLVADEDDDDRVNTSLNTSDSGSDSASDSDGDNTYQEVEEEAEVNTNDNEDDYIRRQASDVVRTDSIIDRNGLRKSTRVKVAPLQYWRNEKIVYKRKSNKPVLDIDKIVTYDESEDEEEILAAQRRKKQKKKPTPTRPYNYVPTGRPRGRPKKDPNAKENLIPEDPNEDIIERIESGGIENGEWLKHGILEANVKISDTKEETKDEIIAFAPNLSQTEQVKDTKDENFALEIMFDKHKEYFASGILKLPAISGQKKLSNSFRTYITFHVIQGIVEVTVCKNKFLSVKGSTFQIPAFNEYAIANRGNDEAKMFFVQVTVSEDANDDNDKELDSTFDTFG
